Results: PMC9628034

Target: apolipoprotein E, apoE4 isoform, of human cerebrospinal fluid (human (endogenous in CSF)) (UniProt P02649)
Assay: native gel or EMSA; blue-native PAGE 4-16% of unheated AD CSF; western blot with AB178479; dimer/monomer quotient from band intensities

## apolipoprotein E, apoE4 isoform, of human cerebrospinal fluid (from UniProt P02649 19-317) (natural protein)
  ratio D/M (apoE dimer/monomer quotient): 0.24
